Patent publication US20250163223A1, “HYDROGEL INCLUSION COMPLEX INCLUDING PHYSIOLOGICALLY ACTIVE MATERIAL BOUND TO THERMOSENSITIVE POLY(PHOSPHAZENE) BY HOST-GUEST INTERACTION USING BETA-CYCLODEXTRIN AND USE THEREOF” (KOREA INSTITUTE OF SCIENCE AND TECHNOLOGY, priority 2019, published 2025)
Ends that are not written are not given here. PEG = not defined here

Assay: Dynamic light scattering (DLS) particle size in aqueous environment
Format: physicochemical
Description: In this example, it was hypothesized that binding affinity between β-CD and Ad-RGD would induce the well-controlled guest molecule amount through the Ad-RGDs inserted at different amounts with one another. First of all, β-CD PPZ and β-CD PPZ+Ad-RGD gave different results from measurement of dynamic light scattering (DLS). […] As Ad-RGDs were included in β-CD PPZ, the practical size of aqueous particles of β-CD PPZ+Ad-RGD was increased.
Further, to identify whether Ad-peptides were stoichiometrically and accurately inserted into the host molecules, dynamic light scattering (DLS) measurement was performed by mixing host molecules and guest molecules such that the ratio of host molecule: guest molecule was 1:1, 1:1.2, and 0:1. […] In this DLS result of the conjugate in which the ratio of host molecule:guest molecule was 1:1, any peaks involved in guest molecules alone were not shown (C of FIG. 17). It means that there were no guest molecules separated from β-CD PPZ. […] This means that all of the Ad-peptides were incorporated into the conjugates of β-CD PPZ and Ad-peptide (host molecule:guest molecule=1:1) in the aqueous environment. On the other hand, it was confirmed that when Ad-peptides was excessively mixed with β-CD PPZ (host molecule: guest molecule=1:1.2), the surplus Ad-peptides formed their own other peaks analogous to those of Ad-TGF and Ad-HAV alone (FIG. 18). […]

Row | Substance | average particle size [nm]
1 | adamantane-PEG-CESPLKRQ ({adamantane-PEG}-CESPLKRQ; reading uncertain) [Ad-TGF, TGF-β1 mimic peptide linked to adamantane via PEG] | 353.63±31.71
2 | adamantane-PEG-CLRAHAVDIN ({adamantane-PEG}-CLRAHAVDIN; not fully specified; reading uncertain) [Ad-HAV, N-cadherin mimic peptide linked to adamantane via PEG] | 460.78±49.53
